The test deals with MBP-ROCK2 (full-length ROCK2 with N-terminal MBP tag) (human), O75116. Briefly: SAXS; MBP-ROCK2 alone; 25 mM HEPES pH 7.4, 25 °C, concentration series 0.3–1.1 mg/ml; molecular mass from the scattering extrapolated to zero angle. Particulars: remark: other sources report otherwise.

This passage reports stoichiometry N results from PMC7699638.

Broadly, the stoichiometry N is a count of units in the complex or per binding partner.

B1: MBP-ROCK2 (full-length ROCK2 with N-terminal MBP tag), O75116 1-1388 (enzyme)
chain: MSRPPPTGKMPGAPETAPGDGAGASRQRKLEALIRDPRSPINVESLLDGLNSLVLDLDFPALRKNKNIDNFLNRYEKIVKKIRGLQMKAEDYDVVKVIGRGAFGEVQLVRHKASQKVYAMKLLSKFEMIKRSDSAFFWEERDIMAFANSPWVVQLFYAFQDDRYLYMVMEYMPGGDLVNLMSNYDVPEKWAKFYTAEVVLALDAIHSMGLIHRDVKPDNMLLDKHGHLKLADFGTCMKMDETGMVHCDTAVGTPDYISPEVLKSQGGDGFYGRECDWWSVGVFLYEMLVGDTPFYADSLVGTYSKIMDHKNSLCFPEDAEISKHAKNLICAFLTDREVRLGRNGVEEIRQHPFFKNDQWHWDNIRETAAPVVPELSSDIDSSNFDDIEDDKGDVETFPIPKAFVGNQLPFIGFTYYRENLLLSDSPSCRETDSIQSRKNEESQEIQKKLYTLEEHLSNEMQAKEELEQKCKSVNTRLEKTAKELEEEITLRKSVESALRQLEREKALLQHKNAEYQRKADHEADKKRNLENDVNSLKDQLEDLKKRNQNSQISTEKVNQLQRQLDETNALLRTESDTAARLRKTQAESSKQIQQLESNNRDLQDKNCLLETAKLKLEKEFINLQSALESERRDRTHGSEIINDLQGRICGLEEDLKNGKILLAKVELEKRQLQERFTDLEKEKSNMEIDMTYQLKVIQQSLEQEEAEHKATKARLADKNKIYESIEEAKSEAMKEMEKKLLEERTLKQKVENLLLEAEKRCSLLDCDLKQSQQKINELLKQKDVLNEDVRNLTLKIEQETQKRCLTQNDLKMQTQQVNTLKMSEKQLKQENNHLMEMKMNLEKQNAELRKERQDADGQMKELQDQLEAEQYFSTLYKTQVRELKEECEEKTKLGKELQQKKQELQDERDSLAAQLEITLTKADSEQLARSIAEEQYSDLEKEKIMKELEIKEMMARHKQELTEKDATIASLEETNRTLTSDVANLANEKEELNNKLKDVQEQLSRLKDEEISAAAIKAQFEKQLLTERTLKTQAVNKLAEIMNRKEPVKRGNDTDVRRKEKENRKLHMELKSEREKLTQQMIKYQKELNEMQAQIAEESQIRIELQMTLDSKDSDIEQLRSQLQALHIGLDSSSIGSGPGDAEADDGFPESRLEGWLSLPVRNNTKKFGWVKKYVIVSSKKILFYDSEQDKEQSNPYMVLDIDKLFHVRPVTQTDVYRADAKEIPRIFQILYANEGESKKEQEFPVEPVGEKSNYICHKGHEFIPTLYHFPTNCEACMKPLWHMFKPPPALECRRCHIKCHKDHMDKKEEIIAPCKVYYDISTAKNLLLLANSTEEQQKWVSRLVKKIPKKPPAPDPFARSSPRTSMKIQQNQSIRRPSRQLAPNKPS
Regarding B1, the stoichiometry N was 2.
